Experimental findings from patent publication US20220033516A1 are described below.

B1: MHR0009/CD3 (bispecific antibody, human IgG1, kappa, N297A)
heavy 1: QSLEESGGRLVTPGTPLTLTCKASGFSLSSYAMIWVRQAPGKGLESIGMVYIHSGGTYYASWAKGRFTISKTSTTVDLKITSPTTEDTATYFCARYNGGGSGTDLWGPGTLVTVSSASTKGPSVFPLAPSSRSTSESTAALGCLVKDYFPEPVTVSWNSGALTSGVHTFPAVLQSSGLYSLSSVVTVPSSSLGTKTYTCNVDHKPSNTKVDKRVEPKSCDKTHTCPPCPAPELRRGPKVFLFPPKPKDTLMISRTPEVTCVVVDVSQEDPEVQFNWYVDGVEVHNAKTKPREEQFASTYRVVSVLTVLHQDWLNGKEYKCKVSNKGLPSSIEKTISKAKGQPREPQVYTLPPSREEMTKNQVSLTCLVKGFYPSDIAVEWESNGQPENNYKTTPPYLDSDGSFFLYSKLTVDKSRWQEGNVFSCSVMHEALHNHYTQESLSLSP
light 1: DIVMTQTPSSVSEPVGGTVTIKCQASQSIYSYLSWYQQKPGQRPKLLIYYASTLASGVPSRFKGSGSGTQFTLTISDLECADAATYYCQNNYGSDSNIYGIAFGGGTKVEIKRTVAAPSVFIFPPSDEQLKSGTASVVCLLNNFYPREAKVQWKVDNALQSGNSQESVTEQDSKDCTYSLSSTLTLSKADYEKHKVYACEVTHQGLSSPVTKSFNRGEC
heavy 2: QVQLVESGGGVVQPGGSLRLSCAASGFTFSNAWMHWVRQAPGKGLEWVAQIKDKSQNYATYVAESVKGRFTISRADSKNSIYLQMNSLKTEDTAVYYCRYVHYAAGYGVDIWGQGTTVTVSSASTKGPSVFPLAPSSRSTSESTAALGCLVKDYFPEPVTVSWNSGALTSGVHTFPAVLQSSGLYSLSSVVTVPSSSLGTKTYTCNVDHKPSNTKVDKRVEPKSCDKTHTCPPCPAPELRRGPKVFLFPPKPKDTLMISRTPEVTCVVVDVSQEDPEVQFNWYVDGVEVHNAKTKPREEQFASTYRVVSVLTVLHQDWLNGKEYKCKVSNKGLPSSIEKTISKAKGQPREPQVYTLPPSRKEMTKNQVSLTCLVKGFYPSDIAVEWESNGQPENNYKTTPPYLDSDGSFFLYSKLTVDKSRWQEGNVFSCSVMHEALHNHYTQKSLSLSP
light 2: DIVMTQSPLSLPVTPGEPASISCRSSQPLVHSNRNTYLHWYQQKPGQAPRLLIYKVSNRFSGVPDRFSGSGSGTDFTLKISRVEAEDVGVYYCGQGTQVPYTFGQGTKLEIKRTVAAPSVFIFPPSDEQLKSGTASVVCLLNNFYPREAKVQWKVDNALQSGNSQESVTEQDSKDSTYSLSSTLTLSKADYEKHKVYACEVTHQGLSSPVTKSFNRGEC
B2: MHR0060/CD3 (bispecific antibody, human IgG1, kappa, N297A)
heavy 1: QSVEESGGRLVTPGTPLTLTCTVSGFSLSSYAMGWVRQAPGKGLEYIGIISSSGSTYYANWAKGRFTISKTSTTVDLKITSPTTEDTATYFCARGVDIYGHPYATPYGMDLWGPGTLVTVSSASTKGPSVFPLAPSSRSTSESTAALGCLVKDYFPEPVTVSWNSGALTSGVHTFPAVLQSSGLYSLSSVVTVPSSSLGTKTYTCNVDHKPSNTKVDKRVEPKSCDKTHTCPPCPAPELRRGPKVFLFPPKPKDTLMISRTPEVTCVVVDVSQEDPEVQFNWYVDGVEVHNAKTKPREEQFASTYRVVSVLTVLHQDWLNGKEYKCKVSNKGLPSSIEKTISKAKGQPREPQVYTLPPSREEMTKNQVSLTCLVKGFYPSDIAVEWESNGQPENNYKTTPPYLDSDGSFFLYSKLTVDKSRWQEGNVFSCSVMHEALHNHYTQESLSLSP
light 1: EVVMTQTPASVEVAVGGTVTIKCQASQSISSYLAWYQQKPGQPPKLLIYYASTLASGVPSRFKGSGSGTEFTLTISDLECDDAATYYCQSNYGSSSSSYEDTFGGGTKVEIKRTVAAPSVFIFPPSDEQLKSGTASVVCLLNNFYPREAKVQWKVDNALQSGNSQESVTEQDSKDCTYSLSSTLTLSKADYEKHKVYACEVTHQGLSSPVTKSFNRGEC
heavy 2: B1 heavy 2
light 2: B1 light 2
B3: MHR0010/CD3 (bispecific antibody, human IgG1, kappa, N297A)
heavy 1: QSVEESGGRLVTPGTPLTLTCTVSGFSLSRYAMSWVRQAPGKGLEWIGIIVSSSGSTYYATWATGRFTISKTSTTVDLKITSPTTEDTATYFCARIRGYDNIGYGYPWFYYFNLWGPGTLVTVSSASTKGPSVFPLAPSSRSTSESTAALGCLVKDYFPEPVTVSWNSGALTSGVHTFPAVLQSSGLYSLSSVVTVPSSSLGTKTYTCNVDHKPSNTKVDKRVEPKSCDKTHTCPPCPAPELRRGPKVFLFPPKPKDTLMISRTPEVTCVVVDVSQEDPEVQFNWYVDGVEVHNAKTKPREEQFASTYRVVSVLTVLHQDWLNGKEYKCKVSNKGLPSSIEKTISKAKGQPREPQVYTLPPSREEMTKNQVSLTCLVKGFYPSDIAVEWESNGQPENNYKTTPPYLDSDGSFFLYSKLTVDKSRWQEGNVFSCSVMHEALHNHYTQESLSLSP
light 1: DVVMTQTPASVEAAVGGTVTIKCQASQSISSYLAWYQQKPGQPPKLLIYDASDLASGVPSRFKGSGSGTQFTLTISDLECADAATYYCQSYYYSSSSSYGFAFGGGTKVEIKRTVAAPSVFIFPPSDEQLKSGTASVVCLLNNFYPREAKVQWKVDNALQSGNSQESVTEQDSKDCTYSLSSTLTLSKADYEKHKVYACEVTHQGLSSPVTKSFNRGEC
heavy 2: B1 heavy 2
light 2: B1 light 2
B4: MHR0016/CD3 (bispecific antibody, human IgG1, kappa, N297A)
heavy 1: QSVEESGGRLVTPGTPLTLTCTVSGFSLSSNAISWVRQAPGKGLEYIGIISSSGSTYYANWAKGRFTISKTSSTTVDLKMTSATTEDTATYFCARGVDIYGHAYATPYGMDLWGPGTLVTVSSASTKGPSVFPLAPSSRSTSESTAALGCLVKDYFPEPVTVSWNSGALTSGVHTFPAVLQSSGLYSLSSVVTVPSSSLGTKTYTCNVDHKPSNTKVDKRVEPKSCDKTHTCPPCPAPELRRGPKVFLFPPKPKDTLMISRTPEVTCVVVDVSQEDPEVQFNWYVDGVEVHNAKTKPREEQFASTYRVVSVLTVLHQDWLNGKEYKCKVSNKGLPSSIEKTISKAKGQPREPQVYTLPPSREEMTKNQVSLTCLVKGFYPSDIAVEWESNGQPENNYKTTPPYLDSDGSFFLYSKLTVDKSRWQEGNVFSCSVMHEALHNHYTQESLSLSP
light 1: B2 light 1 with E12S, V13E, A14P, A34S, A51S, D81A
heavy 2: B1 heavy 2
light 2: B1 light 2
B5: MHR0019/CD3 (bispecific antibody, human IgG1, kappa, N297A)
heavy 1: B2 heavy 1 with T12A, F26I, S27D, Y31D, G34A, N60S, P102A
light 1: B2 light 1 with E12S, V13E, A14P, A34S
heavy 2: B1 heavy 2
light 2: B1 light 2

Residue numbers refer to the chain shown, from its start.

For this test, the target named is recombinant human HER2 S310F ECD protein (human) (UniProt P04626). Description: SPR, Biacore 8K, 37 C, antibody captured by anti-human Fc on CM4, antigen as analyte, 1:1 model.
In the case of B1, the dissociation constant (Kd) was determined as 36.2 nM.

Regarding B2, the Kd stood at 40.4 nM.

On to B3, for which the Kd amounted to 10.8 nM.

With B4, the Kd is 22.3 nM.

In the case of B5, the dissociation constant Kd amounted to 13.9 nM.

For orientation: Kd means the equilibrium constant for the complex coming apart.
